Source: PMC3887258

What was measured:
[1] = molecular target: Human metapneumovirus matrix protein (M), untagged (human metapneumovirus, strain NL1-00); test: SAXS; untagged M in 1 M NaCl buffer, or as 9:1 mixture with SUMO-3C-M in 1 M NDSB-201 buffer; 1 to 4 mg/ml; 20°C, BM29 ESRF; fitted with MD-based ensemble optimisation
[2] = molecular target: Human metapneumovirus matrix protein (M), untagged (human metapneumovirus, strain NL1-00); test: crystal structure; 2.8 Å, space group P3_(1); crystals from 20% PEG 6000, 100 mM Tris pH 8.0, 10 mM zinc chloride, 20°C; mixture of intact and proteolysed untagged M
[3] = molecular target: Human metapneumovirus matrix protein (M), untagged (human metapneumovirus, strain NL1-00); test: negative-stain electron microscopy, 2D class averages; free M in samples of 7.2 μM M incubated with 400 μM DOPC for 7 days at 37°C; 2% uranyl acetate

Measured: stoichiometry N

Human metapneumovirus matrix protein (M), untagged (natural protein)
2: all assays above
